Test results from patent publication US20100183625A1, “Treatment of Mucositis with Kallikrein Inhibitors” (Dyax Corp., priority 2009, published 2010).
Residue numbers refer to the chain shown, from its start.

B1: X68-E03: single point mutation of M142-H08 (P3); HV-CDR3 GGLLLEFRELKSNYFDY (antibody, V domains shown)
VL: QDIQMTQSPSSLSAFVGDRVTITCRASQPIDNYLNWYHQKPGKAPKLLIYAASRLQSGVPSRLSGSGFGTDFTLTISSLQPEDFGNYYCQQSYTVPYTFGGGTKVEIR
VH: EVQLLESGGGLVQPGGSLRLSCAASGFTFSAYSMIWVRQAPGKGLEWVSYIRPSGGRTTYADSVKGRFTISRDNSKNTLYLQMNSLRAEDTAVYYCARGGLLLEFRELKSNYFDYWGQGTLVTVSSASTKGPSVFPLAPSSKS
B2: X68-A12: single point mutation of M142-H08 (P3); HV-CDR3 GGLLLGFRELKSNYFDY (antibody, V domains shown)
VL: B1 VL
VH: B1 VH with E104G
B3: X68-G05: single point mutation of M142-H08 (P3); HV-CDR3 GGLLLSFRELKSNYFDY (antibody, V domains shown)
VL: B1 VL
VH: B1 VH with T78I, E104S
B4: X68-G01: single point mutation of M142-H08 (P3); HV-CDR3 GGLLLRFRELKSNYFDY (antibody, V domains shown)
VL: B1 VL
VH: B1 VH with E104R
B5: X68-H04: single point mutation of M142-H08 (P3); HV-CDR3 GGLLLVFRELKSNYFDY (antibody, V domains shown)
VL: B1 VL
VH: B1 VH with E104V
B6: X68-D10: single point mutation of M142-H08 (P3); HV-CDR3 GGLLLPFRELKSNYFDY (antibody, V domains shown)
VL: B1 VL
VH: B1 VH with E104P
B7: X68-F12: single point mutation of M142-H08 (P3); HV-CDR3 GGLLLTFRELKSNYFDY (antibody, V domains shown)
VL: B1 VL
VH: B1 VH with E104T
B8: X68-F10: single point mutation of M142-H08 (P3); HV-CDR3 GGLLLQFRELKSNYFDY (antibody, V domains shown)
VL: B1 VL
VH: B1 VH with E104Q
B9: X68-D11: single point mutation of M142-H08 (P3); HV-CDR3 GGLLLKFRELKSNYFDY (antibody, V domains shown)
VL: B1 VL
VH: B1 VH with E104K
B10: X68-F05: single point mutation of M142-H08 (P3); HV-CDR3 GGLLLMFRELKSNYFDY (antibody, V domains shown)
VL: B1 VL
VH: B1 VH with E104M
B11: X68-E01: single point mutation of M142-H08 (P3); HV-CDR3 GGLLLLFRELKSNYFDY (antibody, V domains shown)
VL: B1 VL
VH: B1 VH with E104L

target: T1, pKal (Homo sapiens, UniProt P03952); assay: Fab fragments (small scale) tested for inhibition against human pKal in an in vitro protease cleavage assay; format: biochemical; conditions: Table 9
T1 construct: two disulfide linked polypeptides; a heavy chain of approximately 52 kDa and a catalytic domain of approximately 34 kDa; host or cells: human plasma
T1 sequence (P03952 391-638 limits assumed): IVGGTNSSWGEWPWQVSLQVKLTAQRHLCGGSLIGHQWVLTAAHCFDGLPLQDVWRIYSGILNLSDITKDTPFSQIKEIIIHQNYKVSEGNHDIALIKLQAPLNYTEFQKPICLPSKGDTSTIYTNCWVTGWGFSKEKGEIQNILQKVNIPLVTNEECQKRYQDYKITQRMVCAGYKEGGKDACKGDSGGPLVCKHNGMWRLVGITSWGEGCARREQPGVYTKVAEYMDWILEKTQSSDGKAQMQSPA
T1 sequence (P03952 20-390 partner limits assumed): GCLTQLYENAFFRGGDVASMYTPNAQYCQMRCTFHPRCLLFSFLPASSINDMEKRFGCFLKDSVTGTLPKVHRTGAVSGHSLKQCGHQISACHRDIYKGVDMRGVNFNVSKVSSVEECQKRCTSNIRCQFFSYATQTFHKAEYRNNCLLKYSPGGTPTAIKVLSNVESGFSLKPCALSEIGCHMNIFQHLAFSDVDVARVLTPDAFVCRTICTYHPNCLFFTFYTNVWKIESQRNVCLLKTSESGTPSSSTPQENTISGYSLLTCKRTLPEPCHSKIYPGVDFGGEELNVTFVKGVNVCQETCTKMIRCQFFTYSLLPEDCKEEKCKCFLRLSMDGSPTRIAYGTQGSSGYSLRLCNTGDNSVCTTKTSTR
Protocol: By DNA sequencing, we recovered 61 of the possible 80 antibodies (Table 9). These antibodies were produced as Fab fragments in small scale (˜20 μg) and tested for inhibition against human pKal in an in vitro protease cleavage assay using Pro-Phe-Arg-aminomethylcoumarin as the synthetic peptide substrate. […] Five antibodies were then expressed in 293T cells and purified by protein A sepharose chromatography. The antibodies were analyzed by SDS-PAGE to determine which of the inhibitory mutants are not cleaved by the host cell protease(s) (data not shown).

| Inhibit as a Fab? | Molecule |
| --- | --- |
| No | B1 |
| No | B2 |
| No | B3 |
| No | B4 |
| No | B5 |
| No | B6 |
| No | B7 |
| No | B8 |
| No | B9 |
| No | B10 |
| Yes | B11 |
